Measured values from patent publication US20060003400A1, “Methods and compositions for characterizing a redox reagent system enzyme” (priority 2004, published 2006).

B1: wild-type s-GDH: soluble form of pyrroloquinoline quinone (PQQ)-dependent glucose dehydrogenase, naturally occurring (protein, UniProt P13650 25-478, looked up)
Quinoprotein glucose …: DVPLTPSQFAKAKSENFDKKVILSNLNKPHALLWGPDNQIWLTERATGKILRVNPESGSVKTVFQVPEIVNDADGQNGLLGFAFHPDFKNNPYIYISGTFKNPKSTDKELPNQTIIRRYTYNKSTDTLEKPVDLLAGLPSSKDHQSGRLVIGPDQKIYYTIGDQGRNQLAYLFLPNQAQHTPTQQELNGKDYHTYMGKVLRLNLDGSIPKDNPSFNGVVSHIYTLGHRNPQGLAFTPNGKLLQSEQGPNSDDEINLIVKGGNYGWPNVAGYKDDSGYAYANYSAAANKSIKDLAQNGVKVAAGVPVTKESEWTGKNFVPPLKTLYTVQDTYNYNDPTCGEMTYICWPTVAPSSAYVYKGGKKAITGWENTLLVPSLKRGVIFRIKLDPTYSTTYDDAVPMFKSNNRYRDVIASPDGNVLYVLTDTAGNVQKDDGSVTNTLENPGSLIKFTYKAK
B2: Asn452Thr: mutant form of s-GDH with one amino acid substitution, Asn452Thr (protein, UniProt P13650 25-478, looked up, variant N452T)
Quinoprotein glucose …: DVPLTPSQFAKAKSENFDKKVILSNLNKPHALLWGPDNQIWLTERATGKILRVNPESGSVKTVFQVPEIVNDADGQNGLLGFAFHPDFKNNPYIYISGTFKNPKSTDKELPNQTIIRRYTYNKSTDTLEKPVDLLAGLPSSKDHQSGRLVIGPDQKIYYTIGDQGRNQLAYLFLPNQAQHTPTQQELNGKDYHTYMGKVLRLNLDGSIPKDNPSFNGVVSHIYTLGHRNPQGLAFTPNGKLLQSEQGPNSDDEINLIVKGGNYGWPNVAGYKDDSGYAYANYSAAANKSIKDLAQNGVKVAAGVPVTKESEWTGKNFVPPLKTLYTVQDTYNYNDPTCGEMTYICWPTVAPSSAYVYKGGKKAITGWENTLLVPSLKRGVIFRIKLDPTYSTTYDDAVPMFKSNNRYRDVIASPDGNVLYVLTDTAGTVQKDDGSVTNTLENPGSLIKFTYKAK
B3: Asp167Glu: mutant form of s-GDH with one amino acid substitution, Asp167Glu (protein, UniProt P13650 25-478, looked up, variant D167E)
Quinoprotein glucose …: DVPLTPSQFAKAKSENFDKKVILSNLNKPHALLWGPDNQIWLTERATGKILRVNPESGSVKTVFQVPEIVNDADGQNGLLGFAFHPDFKNNPYIYISGTFKNPKSTDKELPNQTIIRRYTYNKSTDTLEKPVDLLAGLPSSKEHQSGRLVIGPDQKIYYTIGDQGRNQLAYLFLPNQAQHTPTQQELNGKDYHTYMGKVLRLNLDGSIPKDNPSFNGVVSHIYTLGHRNPQGLAFTPNGKLLQSEQGPNSDDEINLIVKGGNYGWPNVAGYKDDSGYAYANYSAAANKSIKDLAQNGVKVAAGVPVTKESEWTGKNFVPPLKTLYTVQDTYNYNDPTCGEMTYICWPTVAPSSAYVYKGGKKAITGWENTLLVPSLKRGVIFRIKLDPTYSTTYDDAVPMFKSNNRYRDVIASPDGNVLYVLTDTAGNVQKDDGSVTNTLENPGSLIKFTYKAK

Experiments:
Format in all cases: biochemical
[1] = Conventional enzyme-coated test strips dosed with whole blood spiked with interfering sugar, chronoamperometry; details: whole blood about 80 mg/dL glucose spiked with about 4 mM or 12 mM xylose; FIG. 4
Method: In order to develop an assay for screening mutant forms of s-GDH with varying sugar specificities, the response of wild type and mutant forms of s-GDH with reducing sugars first were tested in a conventional enzyme-coated glucose test strip format. The screening assay ideally mimics the response shown with conventionally enzyme-coated strips tested with whole blood or plasma spiked with a reducing sugar. The mutant forms of s-GDH tested contained one amino acid substitution each: Asn452Thr and Asp167Glu. The test strips were made by a web-based process in which the working electrode (gold) was slot coated with a buffered reagent solution containing approximately 50 to 500 kU/ml wild type or mutant s-GDH, PQQ at a 2 to 1 mole ratio of PQQ to GDH, 2 mM CaCl2, 750 mM ferricyanide, 67 mM citraconate at pH 6.8, 0.1% pluronics and 75 mM sucrose. […] The activity of each enzyme was based on a spectrophotometric assay using DCIP (2,6-Dichlorophenolindophenol) and PES (Phenazine Ethosulfate) in 50 mM PIPES (Piperazine, N,N′bis-(2-ethanesulfonic acid)) buffer at pH 6.8. In the assay, change in the absorbance of DCIP at 600 nm was monitored and the decreasing rate of absorbance was referred to as the reaction rate of the enzyme. The enzyme activity by which […] of DCIP was reduced in one minute was defined as 1 Unit. The molar absorption coefficient of DCIP at pH 6.8 was 17.4 mM-1. A COBAS FARA II centrifugal analyzer was used for the spectrophotometric assay. […]
Whole blood at about 80 mg/dL (or 4.4 mM) of endogenous glucose was spiked with either a high therapeutic level (about 60 mg/dL or 4 mM) or three times a high therapeutic level (about 180 mg/dL or 12 mM) of the interfering sugar xylose. The spiked samples were dosed onto the above test strips and glucose concentration was determined by chronoamperometry in which a potential of −0.3 V was applied for 10 seconds, followed by applying a potential of +0.3 V for 5 seconds. Absolute bias to a control sample with no xylose was calculated for each enzyme and was expressed as a function of xylose concentration, as shown in FIG. 4.

[2] = Conventional wild type s-GDH-coated test strips dosed with plasma spiked with reducing sugars, chronoamperometry; details: plasma spiked with up to 40 mM of five reducing sugars; at less than about 10 mM; FIG. 5
Method: (§1) In order to develop an assay for screening mutant forms of s-GDH with varying sugar specificities, the response of wild type and mutant forms of s-GDH with reducing sugars first were tested in a conventional enzyme-coated glucose test strip format. The screening assay ideally mimics the response shown with conventionally enzyme-coated strips tested with whole blood or plasma spiked with a reducing sugar. The mutant forms of s-GDH tested contained one amino acid substitution each: Asn452Thr and Asp167Glu. The test strips were made by a web-based process in which the working electrode (gold) was slot coated with a buffered reagent solution containing approximately 50 to 500 kU/ml wild type or mutant s-GDH, PQQ at a 2 to 1 mole ratio of PQQ to GDH, 2 mM CaCl2, 750 mM ferricyanide, 67 mM citraconate at pH 6.8, 0.1% pluronics and 75 mM sucrose. […] In the assay, change in the absorbance of DCIP at 600 nm was monitored and the decreasing rate of absorbance was referred to as the reaction rate of the enzyme. […]
(§2) Plasma with about 80 mg/dL (or 4.4 mM) endogenous glucose was spiked with up to 40 mM each of five reducing sugars: glucose, maltose, xylose, galactose and lactose. The spiked samples were dosed onto the above test strips and glucose concentration was determined by chronoamperometry as above. […]

[3] = DCIP/PES spectrophotometric assay (enzyme-limiting conditions); details: same range of sugar concentrations; results not shown
Method: as §1, §2

[4] = Enzyme/sugar solution dosed onto enzyme-free electrochemical cell (process of the invention), current response; details: FIGS. 6-8; for Current response to xylose compared with glucose: xylose less than 10 mM, about 13 activity units per cell; for Current response to all reducing sugars tested: sugars up to about 40 mM
Method: The response of wild-type s-GDH to reducing sugars was measured using electrochemical cells (i.e., test strips) made by a web-based process in which the working electrode (gold) was slot coated with a buffered reagent solution containing 750 mM ferricyanide, 67 mM citraconate at pH 6.8, 0.1% pluronics and 75 mM sucrose. As in Example 1, an IR energy source was used to dry the reagent onto the working electrode. Electrochemical cells were formed by adhering the working electrode with dried reagent to a gold counter electrode containing dried MESA to prevent fouling of the counter electrode.
Wild-type s-GDH in 67 mM citraconate at pH 6.8 with PQQ at a 2 to 1 mole ratio of PQQ to GDH and 2 mM CaCl2 was mixed with physiologically relevant concentrations (up to about 40 mM or 720 mg/dL) of one of the following sugars: glucose, xylose, galactose, maltose, or lactose. The concentration of the wild type s-GDH in each solution was adjusted such that approximately 13 activity units per electrochemical cell were used. Each enzyme/sugar-containing solution was dosed onto an electrochemical cell containing dried ferricyanide, citraconate, Pluronics and sucrose but no enzyme (see above for concentrations). The current response was measured and the average of three determinations was graphed as a function of sugar concentration, as shown in FIG. 6.
The response of Asn452Thr to reducing sugars was measured using the same lot of electrochemical cells as described in Example 2 above (i.e., with cells containing dried ferricyanide, citraconate, Pluronics and sucrose but no enzyme). Asn452Thr was mixed with physiologically relevant concentrations (up to about 40 mM or 720 mg/dL) of one of the following sugars: glucose, xylose, galactose, maltose, or lactose. The concentration of Asn452Thr in each solution was adjusted such that approximately 13 activity units per electrochemical cell were used. Each enzyme/sugar-containing solution was dosed onto an electrochemical cell containing dried ferricyanide, citraconate, Pluronics and sucrose but no enzyme. […] Thus, the assay mimics the results obtained with Asn452Thr-coated strips with the advantages discussed above.
The response of Asp167Glu to reducing sugars was measured as described in Example 3 above. Asp167Glu was mixed with physiologically relevant concentrations (up to about 40 mM or 720 mg/dL) of one of the following sugars: glucose, xylose, galactose, maltose, or lactose; and dosed onto an electrochemical cell containing dried ferricyanide, citraconate, Pluronics and sucrose but no enzyme. […] Thus, again, the assay beneficially mimics the results obtained with Asp167Glu-coated strips but in a quick and easy-to-use format.

Molecule	Absolute bias to a control sample with no xylose as a function of xylose concentration [1]	Current response as a function of sugar concentration [2]	Reactivity with xylose and galactose [3]	Current response to xylose compared with glucose [4]	Current response to all reducing sugars tested [4]
B1	linear correlation	reacts equally well with each of the five reducing sugars tested	low reactivity with xylose and galactose	reacted equally well with glucose and xylose	–
B2	linear correlation	–	–	reacts equally well with glucose and xylose	reacts equally well with all the sugars tested at less than 10 mM sugar
B3	reduced response with xylose	–	–	reduced response to xylose	reacts equally well with all the other reducing sugars tested
